Test results: the Human Domainome abundance scans (Beltran et al. 2025)
± gives the uncertainty stated by the source.

B1: Cell division cycle and apoptosis regulator protein 1, residues 625 to 674; numbered along this chain, Q8IX12 (parent)
chain: ISTPTHWSKLDPKTMKVNDLRKELESRALSSKGLKSQLIARLTKQLKVEE

Variants of: B1
Assay: abundance fitness (aPCA) (normalised: wild type 0, dead -1); higher = more abundant; growth selection in yeast, the domain comes from the species named
Conditions: Homo sapiens

Variant | abundance fitness
ISTPTHWSKLDPKTMKVNDLRKELESRALSSKGLKNQLIARLTKQLKVEE [S36N] | -0.146 ± 0.064
ISTPTHWSKLDPKTMKVNDLRKELESRALSSKGLKSQLWARLTKQLKVEE [I39W] | -0.573 ± 0.054
ISTPTHWSKLDPKTMKVNDLRKELEERALSSKGLKSQLIARLTKQLKVEE [S26E] | 0.026 ± 0.039
ISTPTHWSKLDPKTMKVNDLRKELESRALSSKGLKSQSIARLTKQLKVEE [L38S] | -0.592 ± 0.044
ISTPTHWSKLDPKTMKVNDLRKELESRALDSKGLKSQLIARLTKQLKVEE [S30D] | 0.016 ± 0.059
ISTPTHWSKLDPKTMKVNDLRKELESRHLSSKGLKSQLIARLTKQLKVEE [A28H] | -0.108 ± 0.076
ISTPTHWSKLDPKTMKVNDLRKELESRALSSKGLKSQLIARLTKQLKVDE [E49D] | -0.41 ± 0.048
ISTPTHWSKLDPKTMKVNDLRKELESRALSSKGLKSQLIARLTKQLKREE [V48R] | -0.02 ± 0.036
ISTPTHWSKLDPKTMKVNDLRMELESRALSSKGLKSQLIARLTKQLKVEE [K22M] | -0.028 ± 0.052
ISTPTHWSKLDPKVMKVNDLRKELESRALSSKGLKSQLIARLTKQLKVEE [T14V] | -0.029 ± 0.033
ISTPTHWTKLDPKTMKVNDLRKELESRALSSKGLKSQLIARLTKQLKVEE [S8T] | -0.113 ± 0.038
ISTPTHWSKLDPKTMCVNDLRKELESRALSSKGLKSQLIARLTKQLKVEE [K16C] | -0.048 ± 0.066
ISTPTHWSKLDPKTMKVADLRKELESRALSSKGLKSQLIARLTKQLKVEE [N18A] | 0.072 ± 0.029
ISTPTHWSKLDPKTMKVNDLRKELESRALSSKGLKSQLIARLTCQLKVEE [K44C] | -0.366 ± 0.065
ISTPTHWSKLDPKTMKVNDLRKELTSRALSSKGLKSQLIARLTKQLKVEE [E25T] | -0.18 ± 0.047
IATPTHWSKLDPKTMKVNDLRKELESRALSSKGLKSQLIARLTKQLKVEE [S2A] | -0.072 ± 0.033
ISTPTHWSKLDPKTMKVNDLRKELYSRALSSKGLKSQLIARLTKQLKVEE [E25Y] | -0.799 ± 0.15
ISTPTHWSKLDPKTMKVNDLRKELESRALSSKGLCSQLIARLTKQLKVEE [K35C] | -0.355 ± 0.058
ISTKTHWSKLDPKTMKVNDLRKELESRALSSKGLKSQLIARLTKQLKVEE [P4K] | 0.112 ± 0.063
ISTPTHWSKADPKTMKVNDLRKELESRALSSKGLKSQLIARLTKQLKVEE [L10A] | -0.474 ± 0.041
ISTPTHWSKLDPKTMKVNDLRKELESRALSSKRLKSQLIARLTKQLKVEE [G33R] | -1.04 ± 0.046
ISTPTHWSKLDPKTMKVNALRKELESRALSSKGLKSQLIARLTKQLKVEE [D19A] | -0.015 ± 0.03
ISTPTHWSKLDPKTMKVNDLRKELESRALSSKGLKSQLIRRLTKQLKVEE [A40R] | 0.019 ± 0.042
ISTPTHWSKLDPKTMKVNDLPKELESRALSSKGLKSQLIARLTKQLKVEE [R21P] | -0.682 ± 0.098
ISTPTHWSKLDEKTMKVNDLRKELESRALSSKGLKSQLIARLTKQLKVEE [P12E] | -0.754 ± 0.089
ISTPTHWSKLDPKTMKVNDLRKELESRALSSKGLKSCLIARLTKQLKVEE [Q37C] | -0.04 ± 0.054

Variant | abundance fitness
ISTPTHWSKLDPKTMKVNDLRKELESRALSSKGTKSQLIARLTKQLKVEE [L34T] | -0.06 ± 0.045
ISTPTHWSKLDPKTVKVNDLRKELESRALSSKGLKSQLIARLTKQLKVEE [M15V] | -0.745 ± 0.058
ISTPTHWSKLDPKTMKVNDLRKELESRALSSKGLKSQLIARLTKQTKVEE [L46T] | -0.467 ± 0.057
ISTPTHWSKLDPKTMKVNDLRKELESRALSSKGLKSQLIARLTKQLKVED [E50D] | -0.495 ± 0.11
ISTPTVWSKLDPKTMKVNDLRKELESRALSSKGLKSQLIARLTKQLKVEE [H6V] | -0.003 ± 0.044
ISTPTHWSKVDPKTMKVNDLRKELESRALSSKGLKSQLIARLTKQLKVEE [L10V] | -0.231 ± 0.033
ISTPTHWSKLDPKTMKVNDLRKELESRALSNKGLKSQLIARLTKQLKVEE [S31N] | -0.095 ± 0.059
ISTPTHWHKLDPKTMKVNDLRKELESRALSSKGLKSQLIARLTKQLKVEE [S8H] | -0.074 ± 0.069
ISTPTHWSKLDPKTMKVNDLRQELESRALSSKGLKSQLIARLTKQLKVEE [K22Q] | -0.136 ± 0.057
ISTPTHWSKLDPKTMKVNDIRKELESRALSSKGLKSQLIARLTKQLKVEE [L20I] | 0.136 ± 0.063
ISTPTHWSKLDPKTMKVNDLRKELESRALSSKGLKSQLIARLWKQLKVEE [T43W] | -0.202 ± 0.045
ISTPTHWSKLDPKTMKVNDLRKELESRALISKGLKSQLIARLTKQLKVEE [S30I] | -0.185 ± 0.071
ISTPTHWSKLDPKTIKVNDLRKELESRALSSKGLKSQLIARLTKQLKVEE [M15I] | -0.711 ± 0.072
ISTPTHWSKLDPKTMKVNDLRKELESRALSSCGLKSQLIARLTKQLKVEE [K32C] | -0.18 ± 0.036
ISTPTHWSKLDPKTMKVNDLRKELESRALSSKGLKSQCIARLTKQLKVEE [L38C] | -0.477 ± 0.066
ISTPTHWSKLDSKTMKVNDLRKELESRALSSKGLKSQLIARLTKQLKVEE [P12S] | -0.665 ± 0.047
ISTPTHWSKLDPKTMKVNHLRKELESRALSSKGLKSQLIARLTKQLKVEE [D19H] | 0.045 ± 0.034
ISTPTHWSKLDPKTMKVNDLRKELESRALSSRGLKSQLIARLTKQLKVEE [K32R] | -0.105 ± 0.034
ISTPTHWSKLDPKTMKVNDLRKELESRALSSKGLKSQLIARLTLQLKVEE [K44L] | -0.289 ± 0.035
ISTPTHWSKLDPKTMKVNRLRKELESRALSSKGLKSQLIARLTKQLKVEE [D19R] | -0.073 ± 0.029
ISTPTHWSKLDPKTMKVNDLRKELESRALSSKGLKSQLIAKLTKQLKVEE [R41K] | -0.202 ± 0.03
ISTPTHWSKLDPKTMKVNDLRKELSSRALSSKGLKSQLIARLTKQLKVEE [E25S] | -0.539 ± 0.058
ISTPTHWSKLDPKTMKVNDLRKELESRALSSKGLKSQLISRLTKQLKVEE [A40S] | -0.028 ± 0.033
ISTPTHWSKLDPKTMKVNDLRKEAESRALSSKGLKSQLIARLTKQLKVEE [L24A] | -0.829 ± 0.036
ISTPTHWSKLDPSTMKVNDLRKELESRALSSKGLKSQLIARLTKQLKVEE [K13S] | -0.147 ± 0.03
ISTPTHPSKLDPKTMKVNDLRKELESRALSSKGLKSQLIARLTKQLKVEE [W7P] | -0.101 ± 0.06
